Drawing on paper PMC4879523, this text covers [cAMP]i in HeLa cells overexpressing LANCL2-GFP, 30 s after 5 μM ABA, over basal, unstimulated values, apparent FRET efficiency (plasmamembrane ROIs) and apparent FRET efficiency (whole-cell regions) for one molecule.

Experiment [1] concerns the target α subunit of the chimeric Gi protein fused to TagRFP.
The target is the same in experiment [2]. As to the kind of experiment: FRET or BRET; sensitized-emission FRET in live HeLa cells 2 days after co-transfection; donor EGFP at the C-terminus of LANCL2 forms, acceptor TagRFP at the N-terminus of the chimeric Gi α subunit; apparent FRET efficiency in plasmamembrane or whole-cell ROIs.

B1: LANCL2 fused to EGFP (receptor)
chain: MGETMSKRLKLHLGGEAEMEERAFVNPFPDYEAAAGALLASGAAEETGCVRPPATTDEPGLPFHQDGKIIHNFIRRIQTKIKDLLQQMEEGLKTADPHDCSAYTGWTGIALLYLQLYRVTCDQTYLLRSLDYVKRTLRNLNGRRVTFLCGDAGPLAVGAVIYHKLRSDCESQECVTKLLQLQRSVVCQESDLPDELLYGRAGYLYALLYLNTEIGPGTVCESAIKEVVNAIIESGKTLSREERKTERCPLLYQWHRKQYVGAAHGMAGIYYMLMQPAAKVDQETLTEMVKPSIDYVRHKKFRSGNYPSSLSNETDRLVHWCHGAPGVIHMLMQAYKVFKEEKYLKEAMECSDVIWQRGLLRKGYGICHGTAGNGYSFLSLYRLTQDKKYLYRACKFAEWCLDYGAHGCRIPDRPYSLFEGMAGAIHFLSDVLGPETSRFPAFELDSSKRD
modifications: N-terminal glycine myristoylation
Regarding B1, the [cAMP]i in HeLa cells overexpressing LANCL2-GFP, 30 s after 5 μM ABA, over basal, unstimulated values in experiment [1] was determined as 170%. In experiment [2], the apparent FRET efficiency (plasmamembrane ROIs) was found to be 20% and the apparent FRET efficiency (whole-cell regions) came to 20%.
